In patent publication US20230348854A1:

What was measured:
[1] = molecular target: Human NKp46 (NCR1, CD335), on cells (human) (UniProt O76036); assay: cell-based or functional assay
[2] = molecular target: Human CD94/NKG2A inhibitory receptor (CD159a), on NK cells (human) (UniProt Q13241); assay: cell-based or functional assay

UniProt O76036, sequence (O76036 22-304 Q82K limits assumed): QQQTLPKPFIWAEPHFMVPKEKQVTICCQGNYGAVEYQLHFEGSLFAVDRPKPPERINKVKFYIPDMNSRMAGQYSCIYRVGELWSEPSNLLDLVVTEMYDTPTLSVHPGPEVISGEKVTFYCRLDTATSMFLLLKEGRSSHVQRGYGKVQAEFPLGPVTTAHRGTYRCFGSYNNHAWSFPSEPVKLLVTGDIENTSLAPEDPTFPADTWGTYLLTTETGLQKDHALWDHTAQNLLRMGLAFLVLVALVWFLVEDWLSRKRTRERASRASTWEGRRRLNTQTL

percentage of live NKp46-expressing K562 target cells after 24 hours with CAR T cells, 2:1 [1] [%]	Substance	autologous primary NK cells killed, 2:1 E:T [2] [%]
16.2	anti-CD19 CAR (αCD19 control CAR), expressed on primary human T cells (scFv)	
	anti-NKG2A (HLA-E) CAR (αNKG2A CAR): G peptide/B2M/HLA-E 01:03 single-chain trimer fused to 4-1BB/CD3 zeta, expressed on primary human T cells (peptide-MHC)	64
